Measured values published in patent publication US20200079850A1 (SUTRO BIOPHARMA, published 2020).

What was measured:
[1] = biological target: T1, human LAG3 expressed on the cell surface (CHO-LAG3, 293T-LAG3 cells) (human, UniProt P18627 23-525); test: flow cytometry, 293T cells expressing human LAG3
T1 construct: Stably transfected CHO or HEK293T cells; also called Human LAG3 (CHO); Human LAG3 (293T)
T1 sequence: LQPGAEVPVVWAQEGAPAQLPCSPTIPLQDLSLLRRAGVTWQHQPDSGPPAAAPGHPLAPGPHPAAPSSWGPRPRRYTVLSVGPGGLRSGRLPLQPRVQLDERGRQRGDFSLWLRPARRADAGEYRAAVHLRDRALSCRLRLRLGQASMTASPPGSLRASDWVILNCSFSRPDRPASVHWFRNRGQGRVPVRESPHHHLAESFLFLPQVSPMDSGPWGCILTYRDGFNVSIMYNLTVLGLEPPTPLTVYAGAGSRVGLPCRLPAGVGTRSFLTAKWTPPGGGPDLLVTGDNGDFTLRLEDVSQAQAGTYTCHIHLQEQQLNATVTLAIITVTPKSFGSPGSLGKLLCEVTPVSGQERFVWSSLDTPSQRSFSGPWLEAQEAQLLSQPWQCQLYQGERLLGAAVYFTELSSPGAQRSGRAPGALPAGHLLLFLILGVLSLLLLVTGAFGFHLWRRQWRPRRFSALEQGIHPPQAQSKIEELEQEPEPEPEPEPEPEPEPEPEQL
Method: LAG3 antibody variants were tested in a fluorescence-activated cell sorting (FACS) cell-binding assay. Chinese Hamster Ovary (CHO) cells or HEK293T cells stably expressing the human target molecule LAG3 on the cell surface (CHO-LAG3, 293T-LAG3) were used to screen for cell binders by flow cytometry. Parental CHO or 293T cells were used as a negative control to determine background-binding levels. Cells were cultured in RPMI with 10% FCS Penicillin/Streptomycin (or Pen/Strep) and glutamine (or Gln) and split every 3-4 days at 10⁵ cells/ml.
A mix of parental CHO cells and CHO-LAG3 cells (or 293T and 293T-LAG3 cells) was prepared as follows: Parental CHO cells were washed 2× in PBS then incubated in PBS containing 1 nM CellTrace™ Oregon Green488® (Life Technologies) at 37° C. for 30 minutes. […] Parental CHO cells and CHO-LAG3 cells were then mixed to obtain a 1:1 cell suspension and seeded at 100 μl per well on 96 well polypropylene plates. Plates were spun at 1500 rpm for 5 minutes and cell pellets were suspended in 50 μl FACS buffer containing 6-12 point dilutions of anti-LAG3 variants starting from concentrations of ˜100-200 nM antibody, dispensed using BioMekFX (Beckman Coulter). Cells were then incubated on ice for 1 hr, washed with FACS buffer and incubated for 1 hr on ice with 50 μl FACS buffer containing 2.5 μg/ml R-Phycoerythrin-conjugated Goat Anti-Human IgG (Jackson ImmunoResearch) or AF647-conjugated Goat Anti-mouse IgG (Life Technologies) dispensed using BioMekFX (Beckman Coulter). Cells were then washed 2× with FACS buffer and fixed for 10 minutes in 200 μl PBS with 2% PFA prior to fluorescence detection. Samples were acquired using a Beckton Dickinson LSRII FACS. Mean Fluorescence Intensity of LAG3 antibody binding was analyzed using Tree Star, Inc. FlowJo® software.

[2] = biological target: T2, human LAG3-Fc (R&D Systems #2319-L3) (human, UniProt P18627 23-450); test: SPR (Biacore), antibody captured by anti-Flag, LAG3-Fc as analyte, 25 C
T2 construct: Bought protein; also called Human LAG3 (Biacore)
T2 sequence: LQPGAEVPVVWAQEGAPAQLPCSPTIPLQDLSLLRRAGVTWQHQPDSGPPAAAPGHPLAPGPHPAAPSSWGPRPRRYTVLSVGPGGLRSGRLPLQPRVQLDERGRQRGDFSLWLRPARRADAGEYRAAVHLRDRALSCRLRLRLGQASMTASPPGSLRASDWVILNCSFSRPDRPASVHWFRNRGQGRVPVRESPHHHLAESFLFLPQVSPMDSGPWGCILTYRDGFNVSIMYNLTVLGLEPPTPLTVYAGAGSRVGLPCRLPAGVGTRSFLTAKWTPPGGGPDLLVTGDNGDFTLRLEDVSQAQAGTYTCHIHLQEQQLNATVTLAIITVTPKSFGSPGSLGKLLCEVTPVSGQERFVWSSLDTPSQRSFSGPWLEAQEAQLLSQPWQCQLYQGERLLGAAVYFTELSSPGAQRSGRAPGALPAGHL
Method: Anti-Flag M2 IgG (Sigma-Aldrich # F9291) was immobilized onto a CMS chip (GE Life Sciences) using amine coupling chemistry (from Amine Coupling Kit, GE Life Sciences). The immobilization steps were carried out at a flow rate of 25 μL/min in 1×HBS-EP+ buffer (GE Life Sciences; 10×Stock diluted before use). The sensor surfaces were activated for 7 min with a mixture of NHS (0.05 M) and EDC (0.2 M). The Anti-Flag M2 IgG was injected over all 4 flow cells at a concentration of 25 μg/mL in 10 mM sodium acetate, pH 4.5, for 7 min. Ethanolamine (1 M, pH 8.5) was injected for 7 min to block any remaining activated groups. An average of 12,000 response units (RU) of capture antibody was immobilized on each flow cell.
Off-rate and kinetic binding experiments were performed at 25° C. using 1×HBS-EP+buffer. Test and control antibodies were injected over the Anti-Flag surface at concentrations of 5-10 μg/mL for 12 seconds at a flow rate of 10 μL/min on flow cells 2, 3 and 4, followed by a buffer wash for 30 seconds at the same flow rate. Kinetic characterization of antibody samples was carried out with a single concentration of antigen (for off-rate ranking) or a dilution series of antigen (for kinetic characterization) and 1 injection of 0 nM antigen. After capturing ligand (antibody) on the anti-Flag surface, the analyte (human LAG3-Fc, R&D Systems #2319-L3; or cynomolgus LAG3-Fc, accession # NC 022282.1) was bound at 50, 25, 12.5, 6.25, and 0 nM for 180 seconds, followed by a 600 second dissociation phase at a flow rate of 50 μl/min Between each ligand capture and analyte binding cycle, regeneration was carried out using 2 injections of 10 mM glycine pH 2.0 for 30 seconds at 30 μL/min, followed by a 30 second buffer wash step.
The data were fit with the Biacore T200 Evaluation software, using a 1:1 Langmuir binding model. KD (affinity, nM) was determined as a ratio of the kinetic rate constants calculated from the fits of the association and dissociation phases.

[3] = biological target: T3, recombinant human LAG3 protein (rhLAG3), HIS-tagged (ACRO) or biotinylated (R&D Cat #2319-C3) (human, UniProt P18627 23-450, biotinylated in part of the assays); test: flow cytometry competition, rhLAG3 binding to Daudi cells; competitor MHCII
T3 sequence: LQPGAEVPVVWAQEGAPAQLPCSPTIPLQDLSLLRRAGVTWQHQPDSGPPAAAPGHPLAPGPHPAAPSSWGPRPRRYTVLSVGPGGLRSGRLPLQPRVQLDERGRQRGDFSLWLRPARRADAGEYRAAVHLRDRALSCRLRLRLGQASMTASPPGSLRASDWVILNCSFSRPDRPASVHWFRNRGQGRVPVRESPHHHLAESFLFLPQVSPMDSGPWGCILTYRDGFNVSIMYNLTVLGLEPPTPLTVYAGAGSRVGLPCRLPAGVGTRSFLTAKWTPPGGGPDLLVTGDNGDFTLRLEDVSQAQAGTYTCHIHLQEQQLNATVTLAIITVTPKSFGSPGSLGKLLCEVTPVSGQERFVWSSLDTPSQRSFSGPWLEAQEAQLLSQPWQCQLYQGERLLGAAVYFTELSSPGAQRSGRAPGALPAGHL
Method: DAUDI cells express high levels of Major Histocompatibility Class II (MHCII) molecules, a natural ligand for LAG3, on the cell surface. DAUDI cells were used to screen for antibodies that inhibit binding of HIS-tagged (ACRO) or biotinylated recombinant human LAG3 protein (rhLAG3) to MHCII expressed on the cell surface.
DAUDI cells were cultured in RPMI w/10% FCS Pen/Strep and Gln and split every 3-4 days at 10^5 cells/ml. Cells were washed 2× with FACS buffer (PBS w/2% FCS), […] at a final concentration of 1×10⁶ cells/ml and seeded at 100 μl per well on 96 well polypropylene plates. Plates were spun at 1500 rpm for 5 minutes and cell pellets were suspended in 50 μl FACS buffer containing 8 point 1:3 dilutions (2× concentrated) of anti-LAG3 antibody variants, starting from high concentration of −600 nM. 50 μl FACS buffer containing 10-20 μg/ml of the HIS-tagged rhLAG3 protein or 40 μg/ml of the biotinylated rhLAG3 protein were then added to the cells. Cell were then incubated in ice for 1 hr, washed with FACS buffer and incubated for 1 hr in ice with 50 μl FACS buffer containing 2 μg/ml R-Phycoerythrin-conjugated Streptavidin (eBiosciences) or 1 μg/ml R-Phycoerythrin-conjugated anti-HIS IgG (Abcam). Cell were washed 2× with FACS buffer and fixed for 10 minutes in 200 μl PBS w/2% PFA prior to acquisition.

B1: SRP1627-A11 (scFv, V domains shown)
VH: QVQLVQSGAEVKKPGSSVKVSCKASGFNINDYFMHWVRQAPGQGLEWIARIDPWNGDTEYAPKFQGRVTITADESTSTAYMELSSLRSEDTAVYYCGMSDALDYWGQGTLVTVSS
VL: DVVMTQSPLSLPVTLGQPASISCKSSQSLLDSDGKTYLNWFQQRPGQSPRRLIYLVSKLDSGVPDRFSGSGSGTDFTLKISRVEAEDVGVYYCWHGINFPQTFGQGTKVEIK
B1 showed a Kd [1] of 0.74 nM, a Kd [2] of 13.5 nM and a koff [2] of 0.00422 s⁻¹. For the same binder, the kon [2] was 312000 M⁻¹ s⁻¹ and the IC50 [3] was 1.6 nM.

B2: SRP1627-A02 (scFv, V domains shown)
VH: QVQLVQSGAEVKKPGSSVKVSCKASGFNINDYFMHWVRQAPGQGLEWIARIDPWNGDTEYAPKFQGRVTITADESTSTAYMELSSLRSEDTAVYYCGMSDALDYWGQGTLVTVSS
VL: DVVMTQSPLSLPVTLGQPASISCKSSQSLLDSDGKTYLNWFQQRPGQSPRRLIYLVSKLDSGVPDRFSGSGSGTDFTLKISRVEAEDVGVYYCSHGNPVPQTFGQGTKVEIK
Binder B2 has a Kd [1] of 0.97 nM, a Kd [2] of 43.3 nM and a koff [2] of 0.071 s⁻¹. For the same binder, the kon [2] was 1.64e+06 M⁻¹ s⁻¹ and the IC50 [3] was 1.7 nM.

B3: h5G11-2 (scFv, V domains shown)
VH: QVQLVQSGAEVKKPGSSVKVSCKASGFNIKDYYMHWVRQAPGQGLEWIAWIDPENGDTEYAPKFQGRVTITADESTSTAYMELSSLRSEDTAVYYCNAPDALDYWGQGTLVTVSS
VL: DVVMTQSPLSLPVTLGQPASISCKSSQSLLDSDGKTYLNWFQQRPGQSPRRLIYLVSKLDSGVPDRFSGSGSGTDFTLKISRVEAEDVGVYYCWQGSHFPQTFGQGTKVEIK
Binder B3 has a Kd [1] of 78 nM, a Kd [2] of 863 nM and a koff [2] of 0.0023 s⁻¹. For the same binder, the kon [2] was 2670 M⁻¹ s⁻¹.

B4: SRP1496-B08 (antibody, V domains shown)
VH: EVQLVESGGGLVQPGGSLRLSCAASGFNINDTYIHWVRQAPGKGLEWVGIIDPYDGATDYADSVKGRFTISADTSKNTAYLQMNSLRAEDTAVYYCAREIFGFYWNPFDYWGQGTLVTVSS
VL: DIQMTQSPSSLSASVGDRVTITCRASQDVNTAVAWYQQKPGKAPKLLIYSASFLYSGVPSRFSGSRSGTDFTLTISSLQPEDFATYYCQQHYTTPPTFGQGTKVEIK
Binder B4 has a Kd [1] of 39.4 nM, a Kd [2] of 21.3 nM and a koff [2] of 0.0279 s⁻¹. It also gave a kon [2] of 1.31e+06 M⁻¹ s⁻¹ and an IC50 [3] of 28.6 nM.

B5: SRP1496-A03 (antibody, V domains shown)
VH: EVQLVESGGGLVQPGGSLRLSCAASGFNINDTYIHWVRQAPGKGLEWVGIIDPYDGATDYADSVKGRFTISADTSKNTAYLQMNSLRAEDTAVYYCAREIFGFYWNPFDYWGQGTLVTVSS
VL: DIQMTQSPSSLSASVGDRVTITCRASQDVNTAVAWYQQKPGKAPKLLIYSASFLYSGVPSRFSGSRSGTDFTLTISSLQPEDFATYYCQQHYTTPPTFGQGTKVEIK
With B5 the Kd [1] was 40.6 nM, the Kd [2] was 18.9 nM and the koff [2] was 0.0234 s⁻¹. The kon [2] was 1.24e+06 M⁻¹ s⁻¹ and the IC50 [3] was 41.3 nM.

B6: SRP1648-B07 (antibody, V domains shown)
VH: EVQLVESGGGLVQPGGSLRLSCAASGFNIADTFIHWVRQAPGKGLEWVGIIDPYDGDTDYADSVKGRFTISADTSKNTAYLQMNSLRAEDTAVYYCAREILGFYWNPFDYWGQGTLVTVSS
VL: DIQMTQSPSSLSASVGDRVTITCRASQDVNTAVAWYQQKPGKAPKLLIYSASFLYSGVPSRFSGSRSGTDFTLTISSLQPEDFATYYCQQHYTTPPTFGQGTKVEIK
notes: IgG scaffold with human constant domains
Binder B6 has a Kd [2] of 2.46 nM, a koff [2] of 0.0275 s⁻¹ and a kon [2] of 1.12e+07 M⁻¹ s⁻¹. The IC50 [3] was 4.5 nM.

B7: SRP1648-E02 (antibody, V domains shown)
VH: EVQLVESGGGLVQPGGSLRLSCAASGFNINDNYIHWVRQAPGKGLEWVGIIDPYDGFTAYADSVKGRFTISADTSKNTAYLQMNSLRAEDTAVYYCARESIGFYLNPFDYWGQGTLVTVSS
VL: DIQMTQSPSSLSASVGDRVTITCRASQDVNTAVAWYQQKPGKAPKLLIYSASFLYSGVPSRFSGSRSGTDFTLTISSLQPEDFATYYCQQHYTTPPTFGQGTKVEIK
With B7 the Kd [2] was 2.27 nM, the koff [2] was 0.122 s⁻¹ and the kon [2] was 5.35e+07 M⁻¹ s⁻¹. For the same binder, the IC50 [3] was 4.1 nM.

B8: SRP1627-B01 (scFv, V domains shown)
VH: QVQLVQSGAEVKKPGSSVKVSCKASGFNITDLYMHWVRQAPGQGLEWIARIDPWNGDTEYAPKFQGRATITADESTSTAYMELSSLRSEDTAVYYCIASEMVDYWGQGTLVTVSS
VL: DVVMTQSPLSLPVTLGQPASISCKSSQSLLDSDGKTYLNWFQQRPGQSPRRLIYLVSKLDSGVPDRFSGSGSGTDFTLKISRVEAEDVGVYYCSTYSHFPQTFGQGTKVEIK
Work on B8 yielded a Kd [1] of 0.19 nM, a Kd [2] of 14.7 nM and a koff [2] of 0.0152 s⁻¹. The kon [2] was 1.04e+06 M⁻¹ s⁻¹ and the IC50 [3] was 0.4 nM.

B9: SRP1496-A04 (antibody, V domains shown)
VH: EVQLVESGGGLVQPGGSLRLSCAASGFNINDTYIHWVRQAPGKGLEWVGIIDPYDGATDYADSVKGRFTISADTSKNTAYLQMNSLRAEDTAVYYCAREIFGFYWNPFDYWGQGTLVTVSS
VL: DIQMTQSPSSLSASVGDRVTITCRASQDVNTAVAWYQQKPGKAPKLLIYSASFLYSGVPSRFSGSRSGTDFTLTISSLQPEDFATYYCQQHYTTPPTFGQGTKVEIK
B9 showed a Kd [1] of 35 nM, a Kd [2] of 15.2 nM and a koff [2] of 0.0196 s⁻¹. For the same binder, the kon [2] was 1.29e+06 M⁻¹ s⁻¹ and the IC50 [3] was 55.8 nM.
